Test results from US20150344570A1 (published 2015).
Read-outs that look alike come from different tables or passages of the source.

T1: FcgRIIa H type extracellular domain, C-terminal His tag (human, UniProt P12318 34-217)
T1 construct: extracellular domain; Soluble analyte in Biacore; also called FcγRIIa H; FcγRIIa(H); not shown: His tag at the C terminus
T1 sequence (looked up): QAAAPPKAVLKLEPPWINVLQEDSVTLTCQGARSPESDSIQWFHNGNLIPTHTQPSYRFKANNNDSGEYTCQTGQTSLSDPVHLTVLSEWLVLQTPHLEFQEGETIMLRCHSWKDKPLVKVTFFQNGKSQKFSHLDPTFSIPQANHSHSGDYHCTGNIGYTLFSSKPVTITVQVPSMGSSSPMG

T2: FcgRIIb extracellular domain, C-terminal His tag (human, UniProt P31994 43-217)
T2 construct: extracellular domain; Soluble analyte in Biacore; also called FcγRIIb; not shown: His tag at the C terminus
T2 sequence (looked up): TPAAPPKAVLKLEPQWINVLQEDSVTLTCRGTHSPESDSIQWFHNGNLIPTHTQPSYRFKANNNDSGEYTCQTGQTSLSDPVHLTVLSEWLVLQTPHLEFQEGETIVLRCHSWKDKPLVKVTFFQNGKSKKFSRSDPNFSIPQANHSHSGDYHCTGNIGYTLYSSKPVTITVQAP

T3: FcgRIIa R type extracellular domain, C-terminal His tag (human, UniProt P12318 34-217)
T3 construct: extracellular domain; Soluble analyte in Biacore; also called FcγRIIa R; FcγRIIa(R); not shown: His tag at the C terminus
T3 sequence (looked up): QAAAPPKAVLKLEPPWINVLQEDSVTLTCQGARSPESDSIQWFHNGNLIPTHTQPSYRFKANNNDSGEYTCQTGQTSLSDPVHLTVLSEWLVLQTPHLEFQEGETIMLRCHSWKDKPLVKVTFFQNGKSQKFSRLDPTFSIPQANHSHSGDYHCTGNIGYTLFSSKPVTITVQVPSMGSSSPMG


Assays:
[1] = target: FcγRIIIa extracellular domain with C-terminal His tag (human, UniProt P08637 17-208); test: SPR (Biacore), relative binding activity; GpH7-A5/GpH7-B3/GpL16-k0 = 100
[2] = target: T4, FcgRIIIa F type extracellular domain, C-terminal His tag (human, UniProt P08637 17-208); test: SPR (Biacore); KD of H240-Kn120/H240-Hl068/L73-k0 divided by KD of the variant
T4 construct: extracellular domain; Soluble analyte in Biacore; also called FcγRIIIa F; not shown: His tag at the C terminus
Protocol: (§1) Analysis of interaction between objective antibody and the FcγR was carried out using Biacore T100 (GE Healthcare), Biacore T200, Biacore A100, and Biacore 4000. HBS-EP+ (GE Healthcare) was used as the running buffer, and the measurement temperature was set to 25° C. Chips produced by immobilizing the antigen peptide by the amine coupling method to a Series S sensor Chip CM5 (GE Healthcare), chips produced by allowing preliminarily biotinylated antigen peptides to interact with and immobilize onto a Series S Sensor Chip SA (certified) (GE Healthcare), chips produced by immobilizing Protein L (ACTIGEN, BioVision) to Series S Sencor Chip CM5 (GE Healthcare), or chips produced by immobilizing Protein A/G (Thermo Scientific) to Series S Sencor Chip CM5 (GE Healthcare) were used. Antibodies of interest were captured onto these chips, and allowed to interact to each FcγR diluted with running buffer. To regenerate and repeatedly use the chip, the antibodies captured onto the chip were washed off by reacting 10 mM glycine-HCl, pH 1.5.

[3] = target: T1, FcgRIIa H type extracellular domain, …; test: as above
Protocol: as §1

[4] = target: T2, FcgRIIb extracellular domain, …; test: as above
Protocol: as §1

[5] = target: T3, FcgRIIa R type extracellular domain, …; test: as above
Protocol: as §1

[6] = target: T5, FcgRIIIa V type extracellular domain, C-terminal His tag (human, UniProt P08637 17-208); test: as above
T5 construct: extracellular domain; Soluble analyte in Biacore; also called FcγRIIIa V; not shown: His tag at the C terminus
Protocol: as §1

[7] = target: T4, FcgRIIIa F type extracellular domain, …; test: as above; remark: listed apart in the source
Protocol: (§2) H240-Kn179/H240-H1089/L73-k0, H240-Kn180/H240-Hl089/L73-k0, H240-Kn192/H240-Hl204/L73-k0, and H240-Kn193/H240-Hl204/L73-k0 were prepared by combining each of H240-Kn192 and H240-Kn193 as an H chain, L73-k0 as the L chain, and H240-Hl089 and H240-Hl204 as the other H chain according to the method described in Reference Example 1. The variants described above were assessed for their binding to FcγR according to the method described in Reference Example 8.
as §1

[8] = target: T1, FcgRIIa H type extracellular domain, …; test: as above; remark: listed apart in the source
Protocol: as §2, §1

[9] = target: T2, FcgRIIb extracellular domain, …; test: as above; remark: listed apart in the source
Protocol: as §2, §1

[10] = target: T3, FcgRIIa R type extracellular domain, …; test: as above; remark: listed apart in the source
Protocol: as §2, §1

[11] = target: T5, FcgRIIIa V type extracellular domain, …; test: as above; remark: listed apart in the source
Protocol: as §2, §1

T5 sequence (P08637 17-208 F176V): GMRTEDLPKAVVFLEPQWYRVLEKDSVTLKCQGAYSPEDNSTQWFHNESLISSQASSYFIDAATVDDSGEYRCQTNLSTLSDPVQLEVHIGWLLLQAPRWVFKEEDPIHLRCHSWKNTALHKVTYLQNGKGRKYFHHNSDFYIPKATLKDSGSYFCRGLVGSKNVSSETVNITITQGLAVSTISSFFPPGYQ
T4 sequence (P08637 17-208): as the sequence (P08637 17-208 F176V) above, with V160F counted along it
Chain of FcγRIIIa extracellular domain with C-terminal His tag (P08637 17-208): as the sequence (P08637 17-208 F176V) above, with V160F counted along it

Row | Binder | FcγRIIIa BINDING ACTIVITY [1] [%] | relative KD [2] | relative KD [3] | relative KD [4] | relative KD [5] | relative KD [6] | relative KD [7] | relative KD [8] | relative KD [9] | relative KD [10] | relative KD [11]
1 | GpH7-A48/GpH7-B3-01-15Y/GpL16-k0 (antibody, human IgG1, kappa, H1 P329R; H2 L234Y) heavy 1: QVQLVQSGAEVKKPGASVTVSCKASGYTFTDYEMHWIRQPPGEGLEWIGAIDPKTGDTAYSESFQDRVTLTADKSTSTAYMELSSLTSEDTAVYYCTRFYSYTYWGQGTLVTVSSASTKGPSVFPLAPSSKSTSGGTAALGCLVKDYFPEPVTVSWNSGALTSGVHTFPAVLQSSGLYSLSSVVTVPSSSLGTQTYICNVNHKPSNTKVDKKVEPKSCDKTHTCPPCPAPELLGGPSVFLFPPKPKDTLMISRTPEVTCVVVDVSHEDPEVKFNWYVDGVEVHNAKTKPREEQYNSTYRVVSVLTVLHQDWLNGKEYKCKVSNKALRAPIEKTISKAKGQPREPQVYTLPPSRKELTKNQVSLTCLVKGFYPSDIAVEWESNGQPENNYKTTPPVLDSDGSFFLYSKLTVDKSRWQQGNVFSCSVMHEALHNRYTQKSLSLSP heavy 2: not shown light: DIVMTQSPLSLPVTPGEPASISCQASESLVHSNRNTYLHWYLQKPGQSPQLLIYKVSNRFSGVPDRFSGSGSGTDFTLKISRVEAEDVGVYYCSQNTHVPPTFGQGTKVEIERTVAAPSVFIFPPSDEQLKSGTASVVCLLNNFYPREAKVQWKVDNALQSGNSQESVTEQDSKDSTYSLSSTLTLSKADYEKHKVYACEVTHQGLSSPVTKSFNRGEC | 11 | – | – | – | – | – | – | – | – | – | –
2 | H240-Kn179/H240-Hl068/L73-k0 (antibody, human IgG1, kappa, also called H240-Kn179/H240-HI068/L73-k0) heavy 1: QDQLVQSGAEVKKPGASVKVSCKASGFNIKDTYIQWVRQAPGQGLEWMGRIDPLRKQTKYREKFEGRVTITADTSTNTAYMELSSLRSEDTAVYYCVRSGREFDYWGQGTLVTVSSASTKGPSVFPLAPSSKSTSGGTAALGCLVKDYFPEPVTVSWNSGALTSGVHTFPAVLQSSGLYSLSSVVTVPSSSLGTQTYICNVNHKPSNTKVDKKVEPKSCDKTHTCPPCPAPEYYWGPMVFLFPPKPKDTLMISRTPEVTCVVVDVSDEDPEVKFNWYVDGVEVHNAKTKPREKQYNATYRVVSVLTVLHQDWLNGKEYKCKVSNKDLPAPIEKTISKAKGQPREPQVCTLPPSRDELTKNQVSLWCLVKGFYPSDIAVEWESNGQPENNYKTTPPVLDSDGSFFLYSKLTVDKSRWQQGNVFSCSVMHEALHNHYTQKSLSLSP heavy 2: QDQLVQSGAEVKKPGASVKVSCKASGFNIKDTYIQWVRQAPGQGLEWMGRIDPLRKQTKYREKFEGRVTITADTSTNTAYMELSSLRSEDTAVYYCVRSGREFDYWGQGTLVTVSSASTKGPSVFPLAPSSKSTSGGTAALGCLVKDYFPEPVTVSWNSGALTSGVHTFPAVLQSSGLYSLSSVVTVPSSSLGTQTYICNVNHKPSNTKVDKKVEPKSCDKTHTCPPCPAPELLGGPSVFLFPPKPKDTLMISRTPEVTCVVVDVSHEEPEVKFNWYVDGVEVHNAKTKPREEQYNSTYRVVSVLTVLHQDWLNGKEYKCKVSNDALPKPIEETISKAKGQPREPQVYTLPPSRCELTKNQVSLSCAVKGFYPSDIAVEWESNGQPENNYKTTPPVLDSDGSFFLVSKLTVDKSRWQQGNVFSCSVMHEALHNHYTQKSLSLSP light: DIQMTQSPSSLSASVGDRVTITCRASQDIHKYIAWYQQKPGQAPRLLIQYTSTLQPGVPSRFSGSGSGTDYTFTISSLQPEDIATYYCLQYEQLRTFGGGTKVEIKRTVAAPSVFIFPPSDEQLKSGTASVVCLLNNFYPREAKVQWKVDNALQSGNSQESVTEQDSKDSTYSLSSTLTLSKADYEKHKVYACEVTHQGLSSPVTKSFNRGEC | – | 0.5 | 1 | 0.6 | 0.8 | 0.4 | 0.5 | 1 | 0.6 | 0.8 | 0.4
3 | H240-Kn180/H240-Hl068/L73-k0 (antibody, human IgG1, kappa, also called H240-Kn180/H240-HI068/L73-k0) heavy 1: QDQLVQSGAEVKKPGASVKVSCKASGFNIKDTYIQWVRQAPGQGLEWMGRIDPLRKQTKYREKFEGRVTITADTSTNTAYMELSSLRSEDTAVYYCVRSGREFDYWGQGTLVTVSSASTKGPSVFPLAPSSKSTSGGTAALGCLVKDYFPEPVTVSWNSGALTSGVHTFPAVLQSSGLYSLSSVVTVPSSSLGTQTYICNVNHKPSNTKVDKKVEPKSCDKTHTCPPCPAPEYYWGPMVFLFPPKPKDTLMISRTPEVTCVVVDVSDEDPEVKFNWYVDGVEVHNAKTKPRERQYNATYRVVSVLTVLHQDWLNGKEYKCKVSNKDLPAPIEKTISKAKGQPREPQVCTLPPSRDELTKNQVSLWCLVKGFYPSDIAVEWESNGQPENNYKTTPPVLDSDGSFFLYSKLTVDKSRWQQGNVFSCSVMHEALHNHYTQKSLSLSP heavy 2: QDQLVQSGAEVKKPGASVKVSCKASGFNIKDTYIQWVRQAPGQGLEWMGRIDPLRKQTKYREKFEGRVTITADTSTNTAYMELSSLRSEDTAVYYCVRSGREFDYWGQGTLVTVSSASTKGPSVFPLAPSSKSTSGGTAALGCLVKDYFPEPVTVSWNSGALTSGVHTFPAVLQSSGLYSLSSVVTVPSSSLGTQTYICNVNHKPSNTKVDKKVEPKSCDKTHTCPPCPAPELLGGPSVFLFPPKPKDTLMISRTPEVTCVVVDVSHEEPEVKFNWYVDGVEVHNAKTKPREEQYNSTYRVVSVLTVLHQDWLNGKEYKCKVSNDALPKPIEETISKAKGQPREPQVYTLPPSRCELTKNQVSLSCAVKGFYPSDIAVEWESNGQPENNYKTTPPVLDSDGSFFLVSKLTVDKSRWQQGNVFSCSVMHEALHNHYTQKSLSLSP light: DIQMTQSPSSLSASVGDRVTITCRASQDIHKYIAWYQQKPGQAPRLLIQYTSTLQPGVPSRFSGSGSGTDYTFTISSLQPEDIATYYCLQYEQLRTFGGGTKVEIKRTVAAPSVFIFPPSDEQLKSGTASVVCLLNNFYPREAKVQWKVDNALQSGNSQESVTEQDSKDSTYSLSSTLTLSKADYEKHKVYACEVTHQGLSSPVTKSFNRGEC | – | 0.7 | 1.2 | 0.6 | 1 | 0.5 | 0.7 | 1.2 | 0.6 | 1 | 0.5
